Consider 34 sequences from the NTF2 design screens of Basanta et al. (2020).

This data set is described as follows: protease stability score; higher = more stable; yeast display proteolysis, trypsin and chymotrypsin.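 Further: relative to predicted unfolded state with 0 unfolded-like and 1 meaning tenfold more protease.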
Sequence “DDREEHAKELVDLFQKVMLTGDFKTLEELIDPNYRLHVNGQDVHGMERVIRHIFHMRFQDVKVKRIDHQGNKIDMDVRSIVNVDGRLHEHEIQLIALKVDGRWTVKSLEVH” gave a protease stability score of 1.48.
Under “DEHEHLMLKVVLISIRALLTGDEDRFEHLADPHTRVEVNGVERHGREEYRKWLEHIRIKHIEVEESRAQGDFVHLNGRLRVSYGDKRFETETRWDWIIVDGKLKEMRIRIN” stands 1.26.
Under “SEDEEIMQRLLEELIEALTTGDEDFFTELVDPHARTEFDGKVMHGRERLKYTIELFGVKHVEFRVEVKRISVFDGRILSDTHLELIIDVDGRSVIIRRHTELRVDKVDGRWFNTEHRIE” stands 0.183; under “DEHTKEMKHFLKEWLHNFFTGNEERWAHLADPHVRSDINGVELHGWDLLFRKMRKHREDLGAPHIRDFHIHSMHVINGVIHIDGEIDVDVNGVRIRSRVEIHLNVVNGRNKSEHYHHI”, 0.68.
To “SEDEHRSHLLLKEFEHLMRTGNEEEIERNLDPHTRLEFNGREFHGREDAREVWRRFGFKHLDSLRFHHLEIQGDKIIIDSRTEMLFNGVHTITRVEFHALKIDGRWLSTELRIG” belongs 0.919.
On to “DYHEEIMRKVHEFFLAMVTTGDEEMIEKLFDPHVRIDINGRDHHGRDVAVKIWEELWREIRFKHVHLHDMKSFNGVLHLHVREKVDVNGRDLIIETHFVIRKFDGQWHLHSLKIN”, for which the protease stability score turned out to be 1.38.
Under “SHEKELNERAFRILIEELMTGDEDSWRKLADPNTRHIIDGQTYHGMDFFHEHVRKMGMTIHHVELEDYRFQGEKAVLILHIDGRQGEKHDKIRITIFIEKVDGRWILREVRIG” stands 1.17.
To “REDEREAEEFLRKLLHDIRTGDEESISRMIDPHVRVIYNGVEVIGRERALEVFKKFLEEIRIDTYHVHKVDMINGKMHADTRLRWEINGQRDTSTMLIVVEKVNGRWFLHSVVIS” belongs 1.97; to “REEEHHLEKLARHIVHAILTGDERYLEKLMDPNTRVEIIDGEYRIERHGMHNIVHLLLEIRIHHFEIKRITTYNGQVDIDGEIDGEYGDKRDNRHVEIRFHFVNGRTKSFKVTWR”, 1.31; to “DHHKESSEYLVRDYYEYIETGDFKRMEELADPNMKVVVGDKTHHGRESLSVVYLRLGIKHWDIKRIHNIGNKIRIHSTIFVDGVDMHEHSHAEKIDGRWLLRELSFE”, 0.319.
To “EEVEEEVERATRRHVVDLLTGNWDKLIHEMDPNTYLLINGVKFHGREVYEILLREFIRKYKNARYHITVRDYHVQGDKAIIDMEIRIRIGDKEHHIDSELILRKVDGKWFMQEERII” belongs 2.65.
“TEEEEENMDFLHKWLERTRTGDEHEIKKLADPDVRLRVGNKEIHGRDLFARWAKEIRITHLDEKRFHIYNGKVDFDGINHVTVNGVDETRKVIFHLVKVDGVWRFKEVDIR” yielded a protease stability score of 0.98.
Under “DELEKDLKDAFRILIEEVKTGDFKSMRRNMDPDARIDIGDKHSVGREEAIHLMEIFYKEWRFEHIDLHDFTLIGNKLELDMRVHGNVDGVRTIVIRRVISEKIDGRWLIRTESIE” stands 0.494; under “DELEEISRRAQELSLRLFHTGDERSWERLVDPHAKLDVNGVDVHGRELVHKFFERNIRELGIKHIHLEHEEVQGNKVKLIMHINVNGVERRLVIIAEKIDGRWVLREHKEE”, 0.464.
In the case of “DHEDERSRELTQILWKAWLTGDEELFHRLHDPDVRTEFDGREYHGWERFSELLNQFKNVRIRLRDYRIQGEKSKLDTQINIGDKRTRFHIEIYIIDGRLKNMRFEIE”, the protease stability score turned out to be 0.868.
To “SEEEEESKIISKLAIEETKTGDFESIRRNADPRARSDVDGQEMHGRELLEHIFRWIIEKAGVDKVETDLHELRIVGDKVHVRTKLHIGDWRIEVEIIVRKINGRWHLHSMRFSLR” belongs 0.646; to “SEDQKFFEELVRLMYEYSLTGDWELSERLLDPNALIDIDGVEFHGREIFVESMRHIRLDHIEIRHVESINGRIHAKTEVDGTVNGQRRRRDVEIHLLKVNGRWYIRRVNFK”, 2.45.
To “TEEHREIKESVEQWHKDLHTGNEEMLVRLMDPRMRLQIGDKTLHGREEATRWAREFHKRYDHIHDFKIKDYDHYGNYIIIIGTLDGIVDGQRVRTDVRLIFVKVNGRWTIESEEHE” belongs 0.346; to “DRHEELNKEIAEELVHWHRTGDWEEIQRNMDPNVRMEINGVENVGRETMAEILHEWLSRIKGLRVEIKHVEIIGDKVHIHGRININGRERNTHIDLHVVNGQMHELIIKVE”, 0.279; to “SEEDEHAEHMLRLWLHAIETGDEKLLLELVDPHAKNDVNGVDLHGRHEVWRHVYEMLHKFKNIRWDITETRYIGDYVHIRGILRQGDKTHDIRIKVVSFNGRIKKVEIRIE”, 2.48.
Under “DEDDKDIEMVLRRLIEMVMTGDFEKAKRYADPDMQLDIGDKHFVGRETTITVLREWREHLGIDHVDIDHVHLHIIDGQVIVDLDITHRAENREIRVRFIHYVDKINGRWLVRRVDVKIH” stands 2.31.
“SEHEHELIEFAELFREIIATGDEDALRRLLDPNTQWDFNGVDLHGRDEVIKELRRWRDRFPNMRVHIRRIRLEVINGRLQLDLHTFVEFDGVEFVQHIHLHIEKVNGRWSVHHIEVRYR” displayed a protease stability score of 1.1.
Under “SEREESFEKWVEMYERALQTGDEEHISRLMDPNARSNINGVELHGREQTLEWLRHVKENLGVERVDVRVNLHRYRVIGNYIESDQELILIYNGREFRFHFHFIARKINGRWVVDRLEIK” stands 2.51; under “DEIKRHFDEFIKVLREIIRTGDEEDLVRLMDPNVKLEVGDKRFHGMEVLDVLHKRADHLHEFDIHDWNIQGDKARVDLRLVGQFNGRTVIDNTTLWYEKIDGKWFIKSMRIH”, 1.18.
Under “DEDTEKLKKSLEVIWRLLHTGDENSLEHLMDPNARLDINGVTQVGRTASKIIIDRFDHIRHIHINDVRFIDGRAHVHGKTDGIQGDKRYEVSMEIILLKINGRWIIHQFYTE” stands 1.38; under “SEEEKEAKDALEKLWHYWHTGDEHELVRLADPTMRHIINGRHFHGREFFSELLRRLGFKHIIYHFEDMDVQGDKVHIHGHIESEFDGRRHHMNTHLIILKVNGKWIYESIKFD”, 1.32.
In the case of “DEKDRISKKIVELWMRALITGDEEEMDRMADPDVRIKYGDKVSHGMEEARETWEHIRWRDIRLDHVDSYNGRIRIDGTVHIEINGREDTTRVEIILHVIDGRIKEIRVIIR”, the protease stability score turned out to be 1.3.
Regarding “DETETAKRFALEMLLHTLRTGDEEDKLRMLDPNARLVIGDKEFWGWKEFKKFVEKESRELRIQDSRIQHVELQGDKLHLDSVIIGQVNGVTVELKVEFVMNKIDGKWRVEEIIVR”, the protease stability score is 1.34.
Under “SKEDRDAKWAFEHLMHLLHTGDEEKINENLDPNARNEFDGRELHGREIITEILRNLGIKHLHIHSVEFISQGDKLFSNVDGNNIFDGREVHTHLHFIIEKFNGKWNIKSIHIKIT” stands 1.19.
To “DEEEKAVKHAVERFVESTQTGNEHKLNELMDPNVRIDFNGVELIGREWFSKLLSEIRSDRFHIHDIRLQGEKADNDTREKGHVDGRTTEMTVRLIWIKFDGKWRLETVIFQ” belongs 1.01; to “TEDKEIAIRVTEHFIEAIYTGDEDRVRDLLDPEARLDVNGVELHGMRWFTFWLRQIRIHNMYIRHTEVQGDKVHVDMEQDVEFNGKRHELKSHFVLLKVNGRWTVKHYNVR”, 2.28.
Sequence “DELHEEYRKIYNIFRHLFETGDWDTWRKLADPHARFEYGEKVSHGREVASETIDWLLEHLRLEHFKLDHFTVQGNFFISDGTEHISYGDKTHTVKTRIILVRVNGVFHLVRIEFV” had a protease stability score of 1.43.
Under “SEHEEEARKASQESLHDLKTGDEDSFERLLDPNTRVIVLFDGREIIHVGREEVTRFISEWLKRYKGMRIEMQDVRVIDGRIDIHLKTDVDGKDHRLDIHSEKINGQWFLKSIFVDVH” stands 1.95.
In turn, “SEDREQVHRFFEQFSRDTLTGNEERNFEMADPHTRFDIDGRIIIGRDIILHHWKEEMRKHGAEMKIHIHHVRVQGDKATVDLRVEIHINGRTYEYKVVMIVEKIDGRWVLTQIKYE” gave a protease stability score of 0.365.
